Article PMC2148133

Molecular target: Xklp2 (Xenopus kinesin-like protein 2), endogenous full-length protein (Xenopus (endogenous in Xenopus egg extract)) (UniProt Q91785)
Experiment: SEC + other: sucrose gradient centrifugation

stoichiometry N: 2
Substance: Xklp2 (Xenopus kinesin-like protein 2), endogenous full-length protein (from UniProt Q91785 1-1388) (natural protein)
